Literature values as cited in patent US20020168685A1, “Covalent chemical inducers of protein dimerization and their uses in high throughput binding screens” (priority 2001, published 2002).

Conditions: substrate nitrocefin

B1: E. cloacae P99 wt: wild-type E. cloacae P99 cephase (protein, UniProt P05364 21-381, looked up)
Beta-lactamase: TPVSEKQLAEVVANTITPLMKAQSVPGMAVAVIYQGKPHYYTFGKADIAANKPVTPQTLFELGSISKTFTGVLGGDAIARGEISLDDAVTRYWPQLTGKQWQGIRMLDLATYTAGGLPLQVPDEVTDNASLLRFYQNWQPQWKPGTTRLYANASIGLFGALAVKPSGMPYEQAMTTRVLKPLKLDHTWINVPKAEEAHYAWGYRDGKAVRVSPGMLDAQAYGVKTNVQDMANWVMANMAPENVADASLKQGIALAQSRYWRIGSMYQGLGWEMLNWPVEANTVVEGSDSKVALAPLPVAEVNPPAPPVKASWVHKTGSTGGFGSYVAFIPEKQIGIVMLANTSYPNPARVEAAYHILEALQ
For B1, the “% WT (percentage of wild-type kcat/Km as calculated in that experiment)” value is listed as 100%, the Km is listed as 25 ± 1 µM and the kcat is listed as 780 ± 30 s⁻¹.
